± gives the standard error. This sample holds only a part of the variants without activity.
B1: glmS ribozyme (parent)
chain: AUAAAAGCGCCAGAACUACAGAAAUGUAGUUGACGAGGAGGAGGUUUAUCGAAUUUUCGGCGGAUGCCUCCAAA

Assays:
Settings in all cases: with glucosamine-6-phosphate
glucosamine-6-phosphate [1] = variants of: B1; assay: self-cleavage kobs at 40 uM GlcN6P; higher = faster cleavage; RNA array
Outline: (§1)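 In situ transcription by E. coli RNA polymerase produced barcoded ribozyme variants on sequenced MiSeq chips, and a hybridised Cy3 probe tracked them at 37 °C. Glucosamine-6-phosphate was flowed in at 40 μM to 10 mM in HEPES/KCl/Mg(OAc)2 buffer. kcat and KM were taken from weighted Michaelis–Menten fits of kobs values from exponential decay fits.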

glucosamine-6-phosphate [2] = variants of: B1; assay: self-cleavage kobs at 640 uM GlcN6P; higher = faster cleavage; RNA array
Outline: as §1

glucosamine-6-phosphate [3] = variants of: B1; assay: self-cleavage kobs at 10000 uM GlcN6P; higher = faster cleavage; RNA array
Outline: as §1

glucosamine-6-phosphate [4] = variants of: B1; assay: self-cleavage kobs at 160 uM GlcN6P; higher = faster cleavage; RNA array
Outline: as §1

glucosamine-6-phosphate [5] = variants of: B1; assay: self-cleavage kobs at 2500 uM GlcN6P; higher = faster cleavage; RNA array
Outline: as §1

Variant | self-cleavage kobs at 40 uM GlcN6P (glucosamine-6-phosphate [1]) [s⁻¹] | self-cleavage kobs at 640 uM GlcN6P (glucosamine-6-phosphate [2]) [s⁻¹] | self-cleavage kobs at 10000 uM GlcN6P (glucosamine-6-phosphate [3]) [s⁻¹] | self-cleavage kobs at 160 uM GlcN6P (glucosamine-6-phosphate [4]) [s⁻¹] | self-cleavage kobs at 2500 uM GlcN6P (glucosamine-6-phosphate [5]) [s⁻¹]
G51C U55A | < 1e-05 | < 1e-05 | – | – | –
G41A G59U | < 1e-05 | < 1e-05 | < 1e-05 | – | –
G41A G59A | < 1e-05 | – | – | < 1e-05 | –
G41C G44U | < 1e-05 | < 1e-05 | < 1e-05 | < 1e-05 | < 1e-05
G41C G44A | < 1e-05 | < 1e-05 | < 1e-05 | < 1e-05 | –
G38U U57G C68A U69A | 6.8e-05 ± 3e-05 | – | 5.25e-05 ± 2e-05 | – | –
U49C G62C | < 1e-05 | < 1e-05 | – | – | < 1e-05
G51A U65G | < 1e-05 | – | < 1e-05 | < 1e-05 | –
A42U G51A | < 1e-05 | < 1e-05 | – | – | –
G40A U57G | < 1e-05 | < 1e-05 | – | – | < 1e-05
G41C U45G U57C G59A C61U | < 1e-05 | < 1e-05 | – | – | < 1e-05
G40U A52C | < 1e-05 | – | – | < 1e-05 | –
A42U A52C | < 1e-05 | < 1e-05 | – | < 1e-05 | < 1e-05
G43U G44A | < 1e-05 | < 1e-05 | < 1e-05 | < 1e-05 | < 1e-05
G44U A52G A53U | < 1e-05 | – | < 1e-05 | – | –
U46G C68G C71G | 9.54e-05 ± 3.1e-05 | – | – | – | –
G51A U57G | < 1e-05 | – | – | < 1e-05 | < 1e-05
U47C A53U U56A G59C | < 1e-05 | < 1e-05 | < 1e-05 | – | < 1e-05
C50G C58G G66U C68A | 6.12e-05 ± 1.5e-05 | 0.000228 ± 8e-05 | 0.00013 ± 2e-05 | 0.000177 ± 4e-05 | 0.000368 ± 6.5e-05
U45G U57C | < 1e-05 | – | 7.89e-05 ± 9.7e-06 | < 1e-05 | 3.94e-05 ± 1.4e-05
G51A A52C | < 1e-05 | – | < 1e-05 | < 1e-05 | –
